Experimental data taken from patent publication US20240400717A1, “Antibody Binding to CHI3L1 for Treating Cancer” (National Cheng Kung University, priority 2021, published 2024).

Key:
[1] = target: CHI3L1-receptor(s) interaction on HCT116, SW480, SW620, PANC1 and MiaPaCa-2 (Homo sapiens, UniProt P36222); assay: Flow cytometry blockage of rCHI3L1-receptor(s) interaction, colorectal and pancreatic cancer cell lines; format: cell-based; details: HCT116, SW480, SW620, PANC1, MiaPaCa-2, flow cytometry
Method: CHI3L1 have been reported to interact with several receptors on cancer cells, and trigger downstream signaling for cancer cell growth, proliferation and anti-apoptosis (Kamba et al. 2013; Lee et al. 2016). […] His-tagged rCHI3L1 was added for CHI3L1-receptor(s) interaction. Anti-His antibody AHAb with fluorescent F recognized CHI3L1-receptor(s) R complex for detection (left, FIG. 4A). Once fully human mAbs (nCHI3L1 Ab) blocked the CHI3L1-receptor(s) interaction, the fluorescent F signals were decreased (right, FIG. 4A) and cell signaling CS was blockade.
(§1) Four selected clones of mAbs including R4-4, R4-54, 293R3-2, and 293R3-4 were further tested for blocking effect on human colorectal (HCT116, SW480, and SW620) and pancreatic cancer cell lines (PANC1 and MiaPaCa-2). […] P values were determined by one-way ANOVA. * P<0.05, ** P<0.01, *** P<0.001, **** P<0.0001. For binding specificity examination, we further coated different concentration of recombinant CHI3L1 protein, and two other major proteins in chitinase family including human chitotriosidase-1 (CHIT1) and CHI3L2 from 2.5 μg/ml to 0 μg/ml, on 96-well plate.

[2] = target: human chitotriosidase-1 (CHIT1) (Homo sapiens, UniProt Q13231); assay: ELISA binding specificity, CHIT1; details: mAbs 1 μg/ml; coated protein 2.5 μg/ml to 0 μg/ml
Method: as §1

CHI3L2 = target: T1, CHI3L2 (Homo sapiens, UniProt Q15782); assay: ELISA binding specificity, CHI3L2; details: mAbs 1 μg/ml; coated protein 2.5 μg/ml to 0 μg/ml
T1 sequence (Q15782 27-390): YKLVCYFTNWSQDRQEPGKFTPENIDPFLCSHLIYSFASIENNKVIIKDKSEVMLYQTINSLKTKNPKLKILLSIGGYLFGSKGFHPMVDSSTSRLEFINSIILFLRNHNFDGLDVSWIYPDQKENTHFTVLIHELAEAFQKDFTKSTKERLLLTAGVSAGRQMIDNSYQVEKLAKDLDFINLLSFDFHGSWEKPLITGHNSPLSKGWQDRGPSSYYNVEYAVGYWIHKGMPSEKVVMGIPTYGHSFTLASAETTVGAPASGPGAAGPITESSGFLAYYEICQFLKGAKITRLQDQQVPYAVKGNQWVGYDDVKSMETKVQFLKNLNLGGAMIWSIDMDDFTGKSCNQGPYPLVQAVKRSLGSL
Method: as §1

PANC1 cells = assay: Immunoblot of rCHI3L1-induced AKT and ERK phosphorylation, PANC1; format: cell-based, human; details: PANC1, rCHI3L1 100 ng/ml, 20 minutes, different dose of mAbs
Method: The involvement of CHI3L1 in intracellular signaling pathways has been reported. For example, CHI3L1 binding to CD44 activates protein kinase B (AKT) and extracellular signal-regulated kinase (ERK) signaling to promote cancer progression (Chen, Jiang et al. 2021). Thus, we tested whether mAb clones R4-4, R4-54, 293R3-2, and 293R3-4 could attenuate AKT and ERK phosphorylation in human pancreatic (PANC1), colorectal (HCT116), and lung (A549) cancer cell lines. PANC1 cells were treated with rCHI3L1 (100 ng/ml) only or rCHI3L1 with different dose of mAbs as indicated for 20 minutes.

SW480 and SW620 cells = assay: rCHI3L1-induced foci formation; format: cell-based, human
[3] = system: MiaPaCa-2, SW480 and A549 cells; assay: Wound healing assay with rCHI3L1; format: cell-based, human; details: MiaPaCa-2, SW480, A549; 16 hours
Method: Since AKT regulates cell migration, we further performed wound healing assay to examine the anti-migratory effect of mAbs on pancreatic (MiaPaCa-2), colorectal (SW480), and lung (A549) cells. We observed that after 16 hours, the wound closure area was increased compared to that in control groups upon rCHI3L1 treatment. […] Taken together, our fully human monoclonal CHI3L1 neutralizing antibody clones R4-4, R4-54, 293R3-2, and 293R3-4 blocked the CHI3L1 induced signaling and cell behaviors of tumor cells. The data was presented as mean±S.D. (n=3 per group). P values were determined by one-way ANOVA. * P<0.05, ** P<0.01, *** P<0.001, **** P<0.0001.

hCHI3L1/flag-His = target: T2, hCHI3L1/flag-His (Homo sapiens, UniProt P36222); assay: In tandem epitope binning on Octet Red96; format: binding
T2 construct: human CHI3L1 extracellular domain fused with flag and His tag
Method: In order to know the epitopic coverage for those four antibodies to increase the success of therapeutic CHI3L1 antibody development, epitope binning is used to characterize the binding site of mAbs to the corresponding antigen and summarized in the Table 4. In epitope binning, mAbs specific to the same target protein are tested pairwise against all mAbs in a set to assess whether they block one another's binding to a specific site of the antigen or not. The mAbs that block binding to the same epitope are “binned” together. mAbs within the same bin often function similarly, so epitope bins can narrow down the choices to fewer candidates for investigators to choose from. The in tandem epitope binning assay conducted on Octet Red96 comprised a five-step binding cycle; 1) a buffer baseline was established for 30 sec, 2) 100 nM hCHI3L1/flag-His was captured for 5 min, 3) 100 nM mAb array was loaded to saturate the captured antigen for 10 min, 4) 100 nM of the test mAb was bound for 5 min, and 5) the capture surfaces were regenerated for 30 sec. Anti-His surfaces were regenerated with 10 mM glycine pH 1.7. Raw data was processed using ForteBio's Data Analysis HT Software 11.1 and the antibody pairs were assessed for competitive binding. Additional binding by the second antibody indicates an unoccupied epitope (non-competitor, marked as *c in Table 4), while no binding indicates epitope blocking (competitor, marked as *b in Table 4) and self-competing antibodies were marked as *a in Table 4. Among four anti-CHI3L1 mAbs, there are two epitope clusters.

MiaPaCa cells = assay: MiaPaCa orthotopic NOD-SCID mice model
Method: Specifically, experimental design of tumor growth inhibition in vivo. MiaPaCa cells (5×10^6) were injected into pancreas of NOD-SCID mice at Day 0. […] Mice were sacrificed on day 34. […] Since fibrosis and angiogenesis are two major issues during tumor progression, we compared the fibrosis and angiogenesis level within each groups.

T2 sequence (P36222 22-383): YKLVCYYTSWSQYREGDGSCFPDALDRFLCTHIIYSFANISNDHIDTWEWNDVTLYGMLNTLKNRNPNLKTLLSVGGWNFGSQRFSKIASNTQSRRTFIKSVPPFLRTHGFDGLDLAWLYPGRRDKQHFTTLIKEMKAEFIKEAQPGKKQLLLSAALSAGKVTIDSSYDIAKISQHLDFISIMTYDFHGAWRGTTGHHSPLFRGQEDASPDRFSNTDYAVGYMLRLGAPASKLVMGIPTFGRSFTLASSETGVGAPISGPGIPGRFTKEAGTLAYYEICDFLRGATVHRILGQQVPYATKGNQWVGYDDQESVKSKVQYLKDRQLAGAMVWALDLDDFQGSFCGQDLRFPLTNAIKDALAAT
Chain of human chitotriosidase-1 (CHIT1) (Q13231 22-466): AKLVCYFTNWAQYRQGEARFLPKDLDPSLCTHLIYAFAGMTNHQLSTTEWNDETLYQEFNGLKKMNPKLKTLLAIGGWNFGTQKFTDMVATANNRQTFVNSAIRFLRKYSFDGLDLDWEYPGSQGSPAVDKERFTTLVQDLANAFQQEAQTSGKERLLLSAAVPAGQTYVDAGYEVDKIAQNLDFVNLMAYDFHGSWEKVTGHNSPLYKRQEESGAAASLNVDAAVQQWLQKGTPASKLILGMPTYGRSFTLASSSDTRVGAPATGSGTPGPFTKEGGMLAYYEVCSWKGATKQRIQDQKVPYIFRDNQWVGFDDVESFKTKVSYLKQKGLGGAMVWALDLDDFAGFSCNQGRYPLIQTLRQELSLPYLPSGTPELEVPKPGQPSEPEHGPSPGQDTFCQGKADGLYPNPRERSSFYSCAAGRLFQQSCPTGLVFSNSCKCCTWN
Chain of CHI3L1-receptor(s) interaction on HCT116, SW480, SW620, PANC1 and MiaPaCa-2 (P36222 22-383): as the sequence (P36222 22-383) above

B1: R4-54: fully human anti-CHI3L1 IgG1 mAb, Table 1 No. 34; heavy chain SEQ ID NO: 33, light chain SEQ ID NO: 34 (antibody, listed as Homo sapiens)
VH: QVQLVESGGGVVQPGRSLRLSCAASGFTFSSYGMHWVRQAPGKGLEWVAVISYDGSDKDYADSVKGRFTISRDNSKNTLFLQMNSLRAEDTAVYYCARDDYDSTYYFDNWGQGTTVTVSS
light: SYELTQPPSVSVSPGQTASITCSGDILADQYASWYQQKPGQSPVLVIYHDTKRPSGVPERFSGSTSGNTATLTISGTQAMDEAAYYCQAWDINTAWVFGGGTQLTVLGQPKAAPSVTLFPPSSEELQANKATLVCLISDFYPGAVTVAWKADSSPVKAGVETTTPSKQSNNKYAASSYLSLTPEQWKSHRSYSCQVTHEGSTVEKTVAPTECS
Q: What does the source list for B1?
A: rCHI3L1 binding to cells [1]: significantly reduced; binding specificity: recognition of CHIT1 [2]: no other chitinase proteins; binding specificity: recognition of CHI3L2 (CHI3L2): no other chitinase proteins; p-AKT and p-ERK levels induced by rCHI3L1 (PANC1 cells): inhibited p-AKT and p-ERK levels induced by rCHI3L1 in a dose dependent manner; number of foci (SW480 and SW620 cells): decreased in a dose-dependent manner; cell migration ability induced by rCHI3L1 (wound closure area) [3]: significantly reduced cell migration ability; epitope cluster (hCHI3L1/flag-His; among four anti-CHI3L1 mAbs): unidirectional blocking results; competitive binding class, CHI3L1 293R3-2 (hCHI3L1/flag-His; paired with CHI3L1 293R3-2): *^b; Epitope Binning Heat Map value, CHI3L1 293R3-2 (hCHI3L1/flag-His; paired with CHI3L1 293R3-2, 100 nM each): 0.1002; competitive binding class, CHI3L1 293R3-4 (hCHI3L1/flag-His; paired with CHI3L1 293R3-4): *^b; Epitope Binning Heat Map value, CHI3L1 293R3-4 (hCHI3L1/flag-His; paired with CHI3L1 293R3-4, 100 nM each): 0.1425; competitive binding class, CHI3L1 R4-4 (hCHI3L1/flag-His; paired with CHI3L1 R4-4): *^c; Epitope Binning Heat Map value, CHI3L1 R4-4 (hCHI3L1/flag-His; paired with CHI3L1 R4-4, 100 nM each): 1.1166; competitive binding class, CHI3L1 R4-54 (hCHI3L1/flag-His; paired with CHI3L1 R4-54): *^a; Epitope Binning Heat Map value, CHI3L1 R4-54 (hCHI3L1/flag-His; paired with CHI3L1 R4-54, 100 nM each): 0.2160; fibrosis indicated by α-SMA (MiaPaCa cells; comparing to IgG control and gemcitabine groups): obviously decrease; level of CHI3L1 in intratumoral region and plasma (MiaPaCa cells; end of experiment): lower than IgG control group; infiltrated macrophages in tumor sections (F4/80+, CD206+) (MiaPaCa cells; immunofluorescence, 5 mg/kg i.v.): more macrophages other than M2 phenotype; angiogenesis indicated by CD31 expression (MiaPaCa cells; mAb 5 mg/kg i.v., gemcitabine 50 mg/kg i.p.): decreased in every treatment groups; tumor size (MiaPaCa cells; mAb 5 mg/kg i.v., gemcitabine 50 mg/kg i.p., Day 7, 14, 21, 28, sacrificed day 34): smaller than IgG control group
